Patent publication US20210205409A1, “METHOD FOR THE TREATMENT OF HYPOXIC-ISCHEMIC ENCEPHALOPATHY IN NEWBORNS” (UNIVERSITEIT MAASTRICHT, priority 2018, published 2021)

Test system: primary fetal endothelial cells (ECs) isolated from rat brains
Experiment: Trans-endothelial electrical resistance (TEER) of endothelial cell monolayer after oxygen glucose deprivation (OGD)
Assay type: cell-based
Protocol: To assess whether the effects on the BBB integrity are mediated by Annexin A1, we used a recognized model for BBB integrity of primary fetal endothelial cells (ECs) isolated from rat brains at postnatal day 3.
A cellular monolayer of endothelial cells (ECs) was cultured on semipermeable filter inserts (Transwell, 3460 Corning). Trans-endothelial electrical resistance (TEER) was measured as an established quantitative readout for barrier integrity as described before (Srinivasan et al., J. Lab Autom. 2015 (2) 107-126) using an Epithelial Voltohmmeter (EVOM2) with two chopstick electrodes, each containing a silver-silver chloride pellet for measuring voltage and a silver pellet for passing current. Measurements of the resistance in ohm (Ω) across the cell layer were made on the semipermeable membrane by placing one electrode in the upper compartment and the other electrode in the lower compartment. Measurements were performed in duplicate per insert and consistently conducted for several days, 30 minutes after culture media was changed and temperature was kept at 37° C. before and between all measurements. […]
Subsequently TEER was measured in all groups at 1 hour, 3 hours, 6 hours, 12 hours and 24 after normoxia/OGD. […]
At 0 hour, baseline TEER measurements were taken before initiation of OGD. […] TEER in ohms was measured 3 h, 6 h, 12 h and 24 h after treatment. […]

B1: Annexin A1 (protein, UniProt P04083 2-346, looked up)
Annexin A1: AMVSEFLKQAWFIENEEQEYVQTVKSSKGGPGSAVSPYPTFNPSSDVAALHKAIMVKGVDEATIIDILTKRNNAQRQQIKAAYLQETGKPLDETLKKALTGHLEEVVLALLKTPAQFDADELRAAMKGLGTDEDTLIEILASRTNKEIRDINRVYREELKRDLAKDITSDTSGDFRNALLSLAKGDRSEDFGVNEDLADSDARALYEAGERRKGTDVNVFNTILTTRSYPQLRRVFQKYTKYSKHDMNKVLDLELKGDIEKCLTAIVKCATSKPAFFAEKLHQAMKGVGTRHKALIRIMVSRSEIDMNDIKAFYQKMYGISLCQAILDETKGDYEKILVALCGGN
notes: recombinant Annexin A1 protein, preferably of human origin, obtained commercially
B1 was tested, and the TEER plateau value (fetal rat brain ECs on Transwell, 4 h OGD then treatment with Annexin A1 3 μM, plateau from 12 h onwards, baseline approx. 150 ohms per insert) was 130 ohms and the “effect on endothelial resistance / barrier integrity following OGD” value (fetal rat brain ECs, 4 h OGD, Annexin A1 3 μM) was “restores the endothelial resistance and/or barrier integrity”.
